The text below walks through data of publication PMC7418988, “IgaA negatively regulates the Rcs Phosphorelay via contact with the RcsD Phosphotransfer Protein” (PLoS Genetics, 2020).

B1: IgaA fused to the T18 or the T25 fragment of adenylate cyclase (natural protein, E. coli, UniProt P45800 1-711, looked up)
chain: MSTIVIFLAALLACSLLAGWLIKVRSRRRQLPWTNAFADAQTRKLTPEERSAVENYLESLTQVLQVPGPTGASAAPISLALNAESNNVMMLTHAITRYGISTDDPNKWRYYLDSVEVHLPPFWEQYINDENTVELIHTDSLPLVISLNGHTLQEYMQETRSYALQPVPSTQASIRGEESEQIELLNIRKETHEEYALSRPRGLREALLIVASFLMFFFCLITPDVFVPWLAGGALLLLGAGLWGLFAPPAKSSLREIHCLRGTPRRWGLFGENDQEQINNISLGIIDLVYPAHWQPYIAQDLGQQTDIDIYLDRHVVRQGRYLSLHDEVKNFPLQHWLRSTIIAAGSLLVLFMLLFWIPLDMPLKFTLSWMKGAQTIEATSVKQLADAGVRVGDTLRISGTGMCNIRTSGTWSAKTNSPFLPFDCSQIIWNDARSLPLPESELVNKATALTEAVNRQLHPKPEDESRVSASLRSAIQKSGMVLLDDFGDIVLKTADLCSAKDDCVRLKNALVNLGNSKDWDALVKRANAGKLDGVNVLLRPVSAESLDNLVATSTAPFITHETARAAQSLNSPAPGGFLIVSDEGSDFVDQPWPSASLYDYPPQEQWNAFQKLAQMLMHTPFNAEGIVTKIFTDANGTQHIGLHPIPDRSGLWRYLSTTLLLLTMLGSAIYNGVQAWRRYQRHRTRMMEIQAYYESCLNPQLITPSESLIE
notes: IgaA (E. coli homolog, gene yrfF), five-pass inner membrane protein; Two fusions of the same protein, each chain with ONE of the two tags: T18 (pEAW1) or T25 (pEAW2); also called YrfF; IgaA-T18; source: bacterial two-hybrid (BACTH) fusion, expressed from a plasmid in E. coli BTH101; not shown: T18 fragment of Bordetella adenylate cyclase (Cya), C-terminal, kept; T25 fragment of Bordetella …
B2: RcsD fused to the T25 or the T18 fragment of adenylate cyclase (natural protein, E. coli, UniProt P39838 1-890, looked up)
chain: MRQKETTATTRFSLLPGSITRFFLLLIIVLLVTMGVMVQSAVNAWLKDKSYQIVDITHAIQKRVDNWRYVTWQIYDNIAATTSPSSGEGLQETRLKQDVYYLEKPRRKTEALIFGSHDNSTLEMTQRMSTYLDTLWGAENVPWSMYYLNGQDNSLVLISTLPLKDLTSGFKESTVSDIVDSRRAEMLQQANALDERESFSNMRRLAWQNGHYFTLRTTFNQPGHLATVVAFDLPINDLIPPGMPLDSFRLEPDATATGNNDNEKEGTDSVSIHFNSTKIEISSALNSTDMRLVWQVPYGTLLLDTLQNILLPLLLNIGLLALALFGYTTFRHFSSRSTENVPSTAVNNELRILRAINEEIVSLLPLGLLVHDQESNRTVISNKIADHLLPHLNLQNITTMAEQHQGIIQATINNELYEIRMFRSQVAPRTQIFIIRDQDREVLVNKKLKQAQRLYEKNQQGRMIFMKNIGDALKEPAQSLAESAAKLNAPESKQLANQADVLVRLVDEIQLANMLADDSWKSETVLFSVQDLIDEVVPSVLPAIKRKGLQLLINNHLKAHDMRRGDRDALRRILLLLMQYAVTSTQLGKITLEVDQDESSEDRLTFRILDTGEGVSIHEMDNLHFPFINQTQNDRYGKADPLAFWLSDQLARKLGGHLNIKTRDGLGTRYSVHIKMLAADPEVEEEEERLLDDVCVMVDVTSAEIRNIVTRQLENWGATCITPDERLISQDYDIFLTDNPSNLTASGLLLSDDESGVREIGPGQLCVNFNMSNAMQEAVLQLIEVQLAQEEVTESPLGGDENAQLHASGYYALFVDTVPDDVKRLYTEAATSDFAALAQTAHRLKGVFAMLNLVPGKQLCETLEHLIREKDVPGIEKYISDIDSYVKSLL
notes: RcsD, phosphotransfer protein of the Rcs phosphorelay, inner membrane protein, 890 aa; Two fusions of the same protein, each chain with ONE of the two tags: T25 (pEAW8) or T18 (pEAW7); also called RcsD-T25; RcsD-T18; source: bacterial two-hybrid (BACTH) fusion, expressed from a plasmid in E. coli BTH101; not shown: T25 fragment of Bordetella adenylate cyclase (Cya), C-terminal, kept; T18 fragment …

The target of assay [1] is B2. The assay is described as follows: two-hybrid; bacterial adenylate cyclase two-hybrid (BACTH): T18 and T25 fragments fused C-terminally to the two proteins, two plasmids in cyaA deficient E. coli BTH101; beta-galactosidase activity (Miller units) against fusion plus empty cognate vector as background; threshold for reliable interaction 4x over background; IgaA/RcsD also tested in rcsB, rcsC, rcsF and rcsD mutant hosts; in the rows the T25 fusion is …. The settings on record: partners not purified.

Assay [2] addresses B1. The assay is described as above. As to conditions: partners not purified.

Turning to B1, in assay [1], the beta-galactosidase activity was no less than 1000 Miller units and the “beta-galactosidase activity, fold over either fusion paired with an empty cognate vector” value was roughly 20 fold.

Take B2: in assay [2], the “beta-galactosidase activity, fold over either fusion paired with an empty cognate vector” value was roughly 20 fold and the “beta-galactosidase level, fold over the single construct (background) controls” value is greater than 30 fold.
